Results: the supplement of paper PMC7877785
± gives the uncertainty stated by the source.

Test: self-splicing fitness, log relative to wild type (ln ratio); higher = more splicing; Tetrahymena group I intron in knt gene, E. coli kanamycin selection, DiMSum; sequences stand for … in CUCUCU…GGAGGGAAAAGUUAUCAGGCAUGCACCUGGUAGCUAGUCUUUAAACCAAUAGAUUGCAUCGGUUUAAAAGGCAAGACCGUCAAAUUGCGGGAAAGGGGUCAACAGCCGUUCAGUACCAAGUCUCAGGGGAAACUUUGAGAUGGCCUUGCAAAGGGUAUGGUAAUAAGCUGACGGACAUGGUCCUAACCACGCAGCCAAGUCCUAAGUCAACAGAUCUUCUGUUGAUAUGGAUGCAGUUCACAGACUAAAUGUCGGUCGGGGAAGAUGUAUUCUUCUCAUAAGAUAUAGUCGGACCUCUCCUUAAUGGGAGCUAGCGGAUGAAGUGAUGCAACACUGGAGCCGCUGGGAACUAAUUUGUAUGCGAAAGUAUAUUGAUUAGUUUUGGAGUACUCGUGGUCG
In short: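 A randomised library covering all eight P1ex-region intron nucleotides was built with the intron in the knt kanamycin-resistance gene on pET-22b(+) and held in E. coli BL21(DE3). Cells were grown overnight at 37°C or 30°C on LB agar, with or without 25 μg/mL kanamycin, plus 100 μg/mL carbenicillin, 50 μM IPTG and 0.2% rhamnose, and pooled colonies were amplicon-sequenced on an Illumina HiSeq 2500. DiMSum fitness is the error-weighted combination of wild-type-normalised replicate fold changes, kanamycin versus none.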

Sequence | self-splicing fitness (ln) (30 °C) | self-splicing fitness (ln) (37 °C)
CCCGAGCAAUAUUACGAUCC | -2.76 ± 0.24 | -2.71 ± 0.27
GAGGAGCAAUAUUACGCUGC | -4.13 ± 0.38 | 
GUCUAGCAAUAUUACGGCGC | -0.167 ± 0.1 | 0.985 ± 0.12
CUUGAGCAAUAUUACGCGGG | -3.92 ± 0.3 | -0.302 ± 0.18
AGUUAGCAAUAUUACGUUCG | -1.26 ± 0.082 | -0.903 ± 0.1
UCGGAGCAAUAUUACGUUCU | -3.17 ± 0.2 | -1.41 ± 0.4
CGGCAGCAAUAUUACGACGA | -1 ± 0.11 | -1.41 ± 0.14
CUAUAGCAAUAUUACGAUAU | -2.53 ± 0.21 | -2.45 ± 0.45
GACGAGCAAUAUUACGCAGA | -3.74 ± 0.33 | -3.45 ± 0.42
ACAAAGCAAUAUUACGUCUU | -0.827 ± 0.051 | -0.41 ± 0.064
AGCAAGCAAUAUUACGACUA | -0.478 ± 0.11 | -0.326 ± 0.13
GAAUAGCAAUAUUACGAGUU | -2.2 ± 0.084 | -0.978 ± 0.093
UGUGAGCAAUAUUACGAACU | -0.733 ± 0.14 | 0.203 ± 0.21
GCUCAGCAAUAUUACGUGUA | -0.241 ± 0.058 | -0.00875 ± 0.067
UAUAAGCAAUAUUACGCUCG | -0.59 ± 0.082 | -0.442 ± 0.11
UACUAGCAAUAUUACGAACC |  | -2.16 ± 0.22
UGCAAGCAAUAUUACGACAC | -2.23 ± 0.24 | -1.35 ± 0.21
CCUUAGCAAUAUUACGGGAA | -3.02 ± 0.18 | -2.76 ± 0.19
UAGGAGCAAUAUUACGUUCA | -2.05 ± 0.16 | -1.02 ± 0.19
ACAGAGCAAUAUUACGGUUA | -2.77 ± 0.21 | -3.05 ± 0.33
UCGAAGCAAUAUUACGCGGU | -2.73 ± 0.3 | -2.48 ± 0.36
AGACAGCAAUAUUACGAGCG | -0.874 ± 0.071 | -0.405 ± 0.081
GUCUAGCAAUAUUACGCGAA | -1.36 ± 0.23 | -0.134 ± 0.19
UGCUAGCAAUAUUACGGGGA | -0.989 ± 0.14 | 0.0335 ± 0.14
CGUUAGCAAUAUUACGCUAU | -2.29 ± 0.28 | 

Sequence | self-splicing fitness (ln) (30 °C) | self-splicing fitness (ln) (37 °C)
AGACAGCAAUAUUACGCAAC | -3.42 ± 0.22 | -1.2 ± 0.14
UCGAAGCAAUAUUACGAAUG | -2.95 ± 0.17 | -1.84 ± 0.19
GGCGAGCAAUAUUACGCAUC | -2.15 ± 0.15 | -1.05 ± 0.14
AGACAGCAAUAUUACGAGUU | -2.26 ± 0.086 | -1.14 ± 0.099
GGGGAGCAAUAUUACGCCUU |  | -0.939 ± 0.35
CGUAAGCAAUAUUACGACGA | -1.28 ± 0.21 | -1.69 ± 0.24
CGGCAGCAAUAUUACGCCUU | -0.474 ± 0.097 | -0.622 ± 0.12
GACUAGCAAUAUUACGAGCU | -1.61 ± 0.13 | -0.918 ± 0.093
UGUGAGCAAUAUUACGGGGA | -2.36 ± 0.29 | -1.65 ± 0.33
GAACAGCAAUAUUACGAUAU | -1.36 ± 0.061 | -0.525 ± 0.074
ACCAAGCAAUAUUACGCCUA | -1.04 ± 0.11 | -0.201 ± 0.11
CAAGAGCAAUAUUACGGGCA | -2.96 ± 0.24 | -1.79 ± 0.23
CCUCAGCAAUAUUACGCUGG | -2.55 ± 0.12 | -2.41 ± 0.17
GAGGAGCAAUAUUACGCACA | -1.61 ± 0.32 | -0.287 ± 0.23
GUAAAGCAAUAUUACGGAUG | -2.97 ± 0.24 | -0.613 ± 0.19
GGUAAGCAAUAUUACGAGCG | 0.017 ± 0.17 | 0.512 ± 0.17
CGUCAGCAAUAUUACGCAUC | -2.47 ± 0.4 | -2.89 ± 0.4
CGGGAGCAAUAUUACGUCCG | -1.07 ± 0.43 | 
UUCUAGCAAUAUUACGCAAG | -2.26 ± 0.35 | -0.437 ± 0.34
UGGUAGCAAUAUUACGAGCU | -2.09 ± 0.093 | -1.02 ± 0.12
UUUCAGCAAUAUUACGGACU | -0.982 ± 0.13 | -0.184 ± 0.11
UAACAGCAAUAUUACGGGUG | -0.577 ± 0.049 | -0.256 ± 0.068
ACAGAGCAAUAUUACGAGCG | -3.08 ± 0.14 | -2.51 ± 0.19
GGGAAGCAAUAUUACGUCUA | 0.132 ± 0.17 | -0.25 ± 0.18
